Measurements from patent US20160243226A1.
Blank lines part the entries; values can stand above or below the substance they belong to.

What was measured:
CD20 (human) = CD20 (human) (UniProt P11836); assay: cell-based or functional assay
CD74 (human) = CD74 (human) (UniProt P04233); assay: cell-based or functional assay
CD74 (human), sequence (P04233 whole entry): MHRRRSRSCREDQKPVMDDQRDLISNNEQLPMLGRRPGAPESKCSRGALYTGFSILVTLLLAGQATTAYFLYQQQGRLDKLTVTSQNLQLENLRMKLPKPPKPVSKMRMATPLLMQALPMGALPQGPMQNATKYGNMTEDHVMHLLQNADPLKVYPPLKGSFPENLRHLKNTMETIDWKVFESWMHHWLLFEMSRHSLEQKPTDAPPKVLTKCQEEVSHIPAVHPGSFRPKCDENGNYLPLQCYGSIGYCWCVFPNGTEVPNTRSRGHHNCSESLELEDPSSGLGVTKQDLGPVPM

CD20 (human), sequence (P11836 whole entry): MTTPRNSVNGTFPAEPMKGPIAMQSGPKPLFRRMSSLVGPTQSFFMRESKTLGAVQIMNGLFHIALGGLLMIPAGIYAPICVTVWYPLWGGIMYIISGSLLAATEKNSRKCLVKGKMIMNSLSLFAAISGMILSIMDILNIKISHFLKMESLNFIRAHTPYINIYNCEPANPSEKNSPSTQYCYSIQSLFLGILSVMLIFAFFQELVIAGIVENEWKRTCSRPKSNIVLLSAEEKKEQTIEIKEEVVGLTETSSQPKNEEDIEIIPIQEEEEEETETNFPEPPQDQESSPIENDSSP

Substance: 20-Rap
EC50, in vitro cytotoxicity, Daudi and Ramos (CD20 (human)): 0.1 nM | EC50, in vitro cytotoxicity, Jeko-1 (CD20 (human)): 20 pM

EC50 (nM), MTS assay, JeKo-1 (CD74 (human)): > 100 nM
Substance: 74-(74)-(74) (antibody)

EC50 (nM), MTS assay, Daudi (CD20 (human)): 5.8 nM | EC50 (nM), MTS assay, Granta-519 (CD20 (human)): 0.2 nM | EC50 (nM), MTS assay, Mino (CD20 (human)): 3.4 nM | EC50 (nM), MTS assay, Raji (CD20 (human)): 8 nM
Substance: Hex-hA20 (antibody)
